Measured values: publication PMC6834678

Key:
[1] = target: C1q (of human serum) (human (endogenous in human serum)) (UniProt P02745)
[2] = target: DHS-IgG3 (class-switched IgG3 variant of Trastuzumab, G3m16 allotype with H435, with the DHS mutations) (human); test: SPR; antibody variants immobilised on CM5 chip (~500 RU, amine coupling); hFcRn:hβ2m dimer injected at serial dilutions (1000-40 nM) in PBS, pH 5.8, 30 μL/min; KD from steady-state isotherms or from kinetics with a 1:1 Langmuir mass transfer model
[3] = target: DHS-IgG4 (class-switched IgG4 variant of Trastuzumab with the DHS mutations) (human); test: as above
[4] = target: EDH-IgG1 (Trastuzumab IgG1 with V264E, L309D, Q311H) (human); test: as above
[5] = target: N434S-IgG1 (Trastuzumab IgG1 with N434S) (human); test: as above
[6] = target: wt-IgG3 (class-switched IgG3 variant of Trastuzumab, G3m16 allotype with H435, wild-type Fc) (human); test: as above
[7] = target: wt-IgG4 (class-switched IgG4 variant of Trastuzumab, wild-type Fc) (human); test: as above

Chain of UniProt P02745 (P02745 23-245, chain 1 of 3): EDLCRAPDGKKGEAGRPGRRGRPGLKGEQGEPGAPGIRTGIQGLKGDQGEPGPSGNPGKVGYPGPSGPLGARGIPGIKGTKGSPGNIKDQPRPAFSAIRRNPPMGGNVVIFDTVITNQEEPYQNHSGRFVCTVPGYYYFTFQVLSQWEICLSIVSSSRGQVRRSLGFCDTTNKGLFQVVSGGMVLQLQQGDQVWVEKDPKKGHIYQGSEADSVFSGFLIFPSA
Chain of UniProt P02745 (P02746 28-253, chain 2 of 3, further chain): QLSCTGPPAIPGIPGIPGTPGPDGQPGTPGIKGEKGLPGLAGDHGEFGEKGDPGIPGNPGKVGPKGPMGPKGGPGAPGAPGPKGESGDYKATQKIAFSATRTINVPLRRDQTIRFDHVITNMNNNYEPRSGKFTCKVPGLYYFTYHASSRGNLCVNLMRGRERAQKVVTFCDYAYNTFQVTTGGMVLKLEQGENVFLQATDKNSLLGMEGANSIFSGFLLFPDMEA
Chain of UniProt P02745 (P02747 29-245, chain 3 of 3, further chain): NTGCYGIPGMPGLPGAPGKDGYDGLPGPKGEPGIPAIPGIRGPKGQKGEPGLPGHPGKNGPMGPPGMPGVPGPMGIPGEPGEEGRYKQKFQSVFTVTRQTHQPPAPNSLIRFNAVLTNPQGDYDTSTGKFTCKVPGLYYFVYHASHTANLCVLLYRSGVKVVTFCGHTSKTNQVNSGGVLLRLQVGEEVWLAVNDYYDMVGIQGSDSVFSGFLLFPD

| CDC of Raji cells with 25% human serum against antibody concentration; potency (name of the quantity not given) [1] | Kd [2] | Kd [3] | Kd [4] | Kd [5] | Kd [6] | Kd [7] | Substance |
| --- | --- | --- | --- | --- | --- | --- | --- |
| 1.9 mg/L | – | – | – | – | – | – | LS-Rituximab (anti-CD20 IgG1 with M428L/N434S) (antibody) |
| – | 0.739 µM | 0.832 µM | 0.487 µM | 0.22 µM | 4.08 µM | 2.46 µM | human FcRn/human β2m complex (hFcRn:hβ2m dimer) (from UniProt P55899 24-297; P61769 21-119) |
| 0.7 mg/L | – | – | – | – | – | – | DHS-Rituximab IgG1 (anti-CD20 IgG1 with L309D/Q311H/N434S) (antibody) |
